The results in this text go back to patent US20150204870A1.

Sequence of SNA (natural lectin, not treated with PNGaseF) (Q41358 29-289): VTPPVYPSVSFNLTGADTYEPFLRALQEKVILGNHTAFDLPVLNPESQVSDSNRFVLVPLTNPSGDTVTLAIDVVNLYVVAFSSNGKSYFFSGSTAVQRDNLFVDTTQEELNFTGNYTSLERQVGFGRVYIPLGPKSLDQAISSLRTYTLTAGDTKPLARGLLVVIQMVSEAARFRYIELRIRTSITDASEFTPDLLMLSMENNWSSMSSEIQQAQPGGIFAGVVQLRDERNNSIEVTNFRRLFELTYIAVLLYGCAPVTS
Sequence of SNA (natural lectin, not treated with PNGaseF) (Q41358 309-570): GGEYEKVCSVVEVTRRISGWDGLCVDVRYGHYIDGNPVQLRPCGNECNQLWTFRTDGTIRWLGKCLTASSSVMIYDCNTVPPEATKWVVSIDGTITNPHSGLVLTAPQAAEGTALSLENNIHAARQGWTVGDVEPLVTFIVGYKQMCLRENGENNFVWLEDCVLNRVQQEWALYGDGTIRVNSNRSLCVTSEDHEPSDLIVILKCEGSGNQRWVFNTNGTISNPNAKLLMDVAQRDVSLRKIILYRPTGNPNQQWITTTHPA
Sequence of SNA treated with PNGaseF (sugar chain-removed natural lectin) (Q41358 29-289): as the sequence (Q41358 29-289) above
Sequence of SNA treated with PNGaseF (sugar chain-removed natural lectin) (Q41358 309-570): as the sequence (Q41358 309-570) above

This experiment has as its target thyroglobulin.
As for “MCA (natural lectin, not treated with PNGaseF)”, the S/N Ratio is 3.1.

Consider “MCA treated with PNGaseF (sugar chain-removed natural lectin)”, for which the S/N Ratio came to 6.5.

Consider “SNA (natural lectin, not treated with PNGaseF)”, for which the S/N Ratio was found to be 1.5.

Turning to “SNA treated with PNGaseF (sugar chain-removed natural lectin)”, the S/N Ratio was determined as 6.

Take “SSA (natural lectin, not treated with PNGaseF)”: the S/N Ratio is 1.9.

As to “SSA treated with PNGaseF (sugar chain-removed natural lectin)”, the S/N Ratio was 8.
